Assays:
GST-SIP1CZF = molecular target: T1, GST-SIP1CZF (mouse, UniProt Q9R0G7 Q9R0G7:957-1156); assay: EMSA; strong; conditions: tags: GST; label: 32P
T1 sequence: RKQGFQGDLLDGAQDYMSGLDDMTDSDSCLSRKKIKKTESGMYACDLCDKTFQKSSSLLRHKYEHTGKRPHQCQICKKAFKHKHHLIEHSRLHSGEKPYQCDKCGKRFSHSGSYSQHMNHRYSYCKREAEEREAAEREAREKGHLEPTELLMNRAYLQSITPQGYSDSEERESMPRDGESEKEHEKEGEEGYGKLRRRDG
Protocol: (§1) The DNA binding assay (20 μl) was performed at 25° C., with 1 μg of COS1 total cell protein, […] of poly dI-dC, 10 pg of ³²P-labeled double-stranded oligonucleotide (approx. 10⁴ Cerenkov counts) in the δEF1 binding buffer described previously (30). For supershift experiments, the extracts were incubated with anti-Myc (Santa Cruz) or anti-FLAG (Kodak) antibodies. For competition, an excess of unlabeled double-stranded oligonucleotides was added together with the labeled probe. The binding reaction was loaded onto a 4% polyacrylamide gel (acrylamide/bis-acrylamide, 19:1) prepared in 0.5XTBE buffer. Following electrophoresis, gels were dried, and exposed to X-Ray film. All experiments were repeated at least three times.
(§2) The integrity of both SIP1 zinc finger clusters is necessary for the binding of SIP1FS to DNA: Mutations within NZF3, NZF4, CZF2, CZF3 abolish the DNA-binding activity of either the SIP1NZF or SIP1CZF zinc finger clusters. The wild type and mutated zinc finger clusters were fused to GST and the fusion proteins were produced in E. Coli. After purification, an equal amount of each fusion proteins (0.1 ng) was incubated with 10 pg of labeled Xbra-E probe. Mutations within NZF3, NZF4, CZF2 or CZF3 affect the binding of SIP1FS to the Xbra-WT probe. […]

GST-SIP1NZF = molecular target: T2, GST-SIP1NZF (mouse, UniProt Q9R0G7 Q9R0G7:90-383); assay: EMSA; strong; conditions: tags: GST; label: 32P
T2 sequence: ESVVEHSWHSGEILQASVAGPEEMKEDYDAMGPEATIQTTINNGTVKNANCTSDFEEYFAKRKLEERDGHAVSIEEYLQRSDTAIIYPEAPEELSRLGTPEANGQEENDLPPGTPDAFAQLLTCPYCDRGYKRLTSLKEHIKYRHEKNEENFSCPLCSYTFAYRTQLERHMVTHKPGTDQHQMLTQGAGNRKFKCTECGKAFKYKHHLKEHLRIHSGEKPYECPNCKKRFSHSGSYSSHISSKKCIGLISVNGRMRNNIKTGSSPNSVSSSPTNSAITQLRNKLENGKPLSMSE
Protocol: as §1, §2

B1: Xbra-E (dsDNA)
DNA 1: TAAAGTGACCAGGTGTCAGTTCT
DNA 2: AGAACTGACACCTGGTCACTTTA
- binding result (GST-SIP1CZF): binds
- binding result (GST-SIP1NZF): binds
